# Data published in paper doi:10.1101/2020.01.08.898262 (bioRxiv, 2020).
# Target: the molecule itself
# Test: crystal structure
protein,measurement,value
"Salmonella typhi outer membrane phospholipase A (OmpLA), leaderless (21Q-289F) (enzyme) QEATIKEVHDAPAVRGSIIANMLQEHDNPFTLYPYDTNYLIYTNTSDLNKEAISTYNWSENARKDEVKFQLSLAFPLWRGILGPNSVLGASYTQKSWWQLSNSKESSPFRETNYEPQLFLGFATDYRFAGWTLRDVEMGYNHDSNGRSDPTSRSWNRLYTRLMAENGNWLVEVKPWYVIGSTDDNPDITKYMGYYQLKIGYHLGEAVLSAKGQYNWNTGYGGAEVGLSYPVTKHVRLYTQVYSGYGESLIDYNFNQTRVGVGVMLNDIF",binding result,binds
